Measured values as given in the Human Domainome abundance scans (Beltran et al. 2025).
± gives the uncertainty stated by the source.

B1: Tumor protein p73, residues 487 to 549; numbered along this chain, O15350 (parent)
chain: YHADPSLVSFLTGLGCPNCIEYFTSQGLQSIYHLQNLTIEDLGALKIPEQYRMTIWRGLQDLK

Variants of: B1
Assay: abundance fitness (aPCA) (normalised: wild type 0, dead -1); higher = more abundant; growth selection in yeast, the domain comes from the species named
Settings: Homo sapiens

Abundance fitness of substitutions, site by site:
Y22: T -0.04 ± 0.041, H 0.031 ± 0.07, E -0.107 ± 0.046, V -0.079 ± 0.038, A -0.035 ± 0.036, K -0.047 ± 0.042, M -0.026 ± 0.055, D -0.101 ± 0.063, L 0.009 ± 0.03, R -0.042 ± 0.029, P -0.069 ± 0.074, N 0.002 ± 0.12, I -0.108 ± 0.12, G -0.173 ± 0.034, W -0.261 ± 0.041, F 0.002 ± 0.081
F23: I -0.277 ± 0.14, C -0.315 ± 0.053, S -1.03 ± 0.087, M -0.306 ± 0.057, T -0.978 ± 0.13, E -1.05 ± 0.15, L -0.182 ± 0.037, A -0.971 ± 0.14, G -0.995 ± 0.075, Y -0.638 ± 0.12, H -0.81 ± 0.27, V -0.618 ± 0.049, K -0.975 ± 0.15, D -1.18 ± 0.19, N -0.733 ± 0.15, P -0.907 ± 0.16, W -0.966 ± 0.11, R -1.14 ± 0.15, Q -0.801 ± 0.12
G27: A -0.304 ± 0.075, L -1.02 ± 0.1, S -0.07 ± 0.035, T -0.172 ± 0.075, C -0.448 ± 0.059, K -0.089 ± 0.043, M -0.716 ± 0.069, Q -0.05 ± 0.051, D 0.06 ± 0.044, V -0.61 ± 0.084, P -0.367 ± 0.065, R -0.024 ± 0.025, H -0.004 ± 0.053, F -1 ± 0.22, N -0.055 ± 0.22
I31: L 0.035 ± 0.037, D -0.269 ± 0.068, Q 0.026 ± 0.052, M 0.012 ± 0.053, A 0.004 ± 0.043, G -0.199 ± 0.038, R -0.057 ± 0.033, V 0.042 ± 0.036, C -0.011 ± 0.087, K -0.11 ± 0.051, Y -0.133 ± 0.064, E -0.129 ± 0.045, T -0.005 ± 0.05, P -0.048 ± 0.052, W -0.025 ± 0.038, N -0.086 ± 0.051, F -0.294 ± 0.21, H -0.156 ± 0.06
H33: P -0.127 ± 0.037, C -0.051 ± 0.061, A -0.014 ± 0.035, V -0.059 ± 0.034, G -0.038 ± 0.033, Y -0.112 ± 0.058, Q 0.069 ± 0.043, T 0.01 ± 0.048, K 0.112 ± 0.041, D -0.017 ± 0.1, L -0.142 ± 0.037, R -0.055 ± 0.031, N -0.027 ± 0.086, W -0.566 ± 0.07, I -0.216 ± 0.072, E 0.003 ± 0.041, F -0.344 ± 0.099, M -0.088 ± 0.052
S30: V -0.521 ± 0.05, C -0.062 ± 0.04, F -0.423 ± 0.079, R -0.043 ± 0.025, G -0.086 ± 0.03, W -0.817 ± 0.085, N 0.025 ± 0.055, P -0.629 ± 0.094, M -0.094 ± 0.22, H -0.027 ± 0.065, Q 0.115 ± 0.041, Y -0.016 ± 0.051, K -0.03 ± 0.083, I -1.01 ± 0.27, T 0.085 ± 0.073
L28: H 0.083 ± 0.13, R -0.05 ± 0.027, E -0.177 ± 0.061, I -0.041 ± 0.065, Y -0.058 ± 0.051, K 0.005 ± 0.043, S -0.079 ± 0.035, Q -0.038 ± 0.042, F 0.175 ± 0.077, P -0.286 ± 0.069, T -0.186 ± 0.046, N -0.241 ± 0.072, G -0.289 ± 0.032, M 0.042 ± 0.051, D -0.261 ± 0.081, V -0.008 ± 0.028, C 0.021 ± 0.044, W -0.16 ± 0.039
E40: S -0.048 ± 0.053, V -0.097 ± 0.049, Y -0.215 ± 0.13, D -0.06 ± 0.071, G 0.053 ± 0.043, C 0.033 ± 0.093, H -0.005 ± 0.11, A 0.007 ± 0.048, Q -0.124 ± 0.085, W -0.085 ± 0.044, K -0.141 ± 0.069, M -0.127 ± 0.054, R -0.059 ± 0.035, P -0.152 ± 0.074
L37: H -0.063 ± 0.12, I -0.058 ± 0.071, R -0.191 ± 0.034, D -0.737 ± 0.16, Y 0.071 ± 0.11, W -0.159 ± 0.054, P -0.799 ± 0.12, K 0.001 ± 0.076, Q -0.41 ± 0.13, M 0.032 ± 0.05, F 0.02 ± 0.064, N -0.426 ± 0.21, C -0.089 ± 0.082, S -0.142 ± 0.044, E -0.667 ± 0.074, G -0.536 ± 0.044, T -0.039 ± 0.065
Q29: T 0.066 ± 0.04, G -0.006 ± 0.03, M 0.03 ± 0.04, S 0.053 ± 0.033, E 0.05 ± 0.038, V -0.016 ± 0.031, N -0.108 ± 0.21, A -0.047 ± 0.037, K 0.05 ± 0.035, W -0.139 ± 0.035, R -0.063 ± 0.028, D 0.089 ± 0.089, H 0.102 ± 0.076, F -0.005 ± 0.056, L 0.044 ± 0.028, P 0.006 ± 0.037, I 0.142 ± 0.06
Q35: V 0.055 ± 0.046, D 0.073 ± 0.08, T -0.084 ± 0.042, W -0.245 ± 0.041, A -0.019 ± 0.042, S 0.071 ± 0.043, K 0.078 ± 0.057, N 0.192 ± 0.071, P -0.184 ± 0.073, Y 0.031 ± 0.057, M -0.058 ± 0.051, H 0.026 ± 0.055, E 0.005 ± 0.066, F -0.142 ± 0.085, C -0.07 ± 0.083
Y32: T 0.014 ± 0.059, A 0.012 ± 0.053, C 0.112 ± 0.054, R 0.071 ± 0.03, L 0.105 ± 0.032, W -0.001 ± 0.043, M -0.068 ± 0.064, G 0.104 ± 0.027, K 0.137 ± 0.1, V 0.143 ± 0.039, P -0.04 ± 0.07, D 0.03 ± 0.071, F 0.069 ± 0.061, E 0.095 ± 0.053, S 0.113 ± 0.032, I 0.097 ± 0.089
L34: P -0.671 ± 0.12, E -0.638 ± 0.062, T 0.018 ± 0.045, R -0.867 ± 0.077, M 0.021 ± 0.051, A 0.048 ± 0.039, V 0.038 ± 0.028, N -0.536 ± 0.13, S -0.319 ± 0.045, C -0.049 ± 0.068, Q -0.529 ± 0.073, D -0.835 ± 0.12, Y -0.285 ± 0.14
E21: Y -0.042 ± 0.073, V -0.018 ± 0.031, W -0.087 ± 0.063, S -0.003 ± 0.044, P -0.053 ± 0.049, T -0.054 ± 0.063, K -0.048 ± 0.052, R -0.009 ± 0.03, N -0.037 ± 0.098
S25: F -0.197 ± 0.069, E 0.129 ± 0.046, N 0.001 ± 0.1, I -0.195 ± 0.054, W -0.361 ± 0.041, M -0.051 ± 0.047, K 0.046 ± 0.044, L -0.055 ± 0.034, C 0.012 ± 0.059, Y -0.266 ± 0.082, Q 0.051 ± 0.043, G 0.029 ± 0.031, A 0.03 ± 0.036, D -0.074 ± 0.14, P -0.179 ± 0.052
Q26: I -0.163 ± 0.33, S -0.004 ± 0.032, W -0.286 ± 0.042, Y -0.32 ± 0.098, C -0.057 ± 0.052, E 0.011 ± 0.038, D -0.2 ± 0.086, M -0.207 ± 0.044, N 0.109 ± 0.072, H 0.035 ± 0.085, L -0.199 ± 0.04, F -0.18 ± 0.077, A 0.079 ± 0.037, K 0.032 ± 0.048, R 0.001 ± 0.034, P -0.204 ± 0.052, T -0.082 ± 0.06, G -0.034 ± 0.035
N36: Y -0.202 ± 0.091, Q 0.022 ± 0.038, R 0.034 ± 0.031, C -0.567 ± 0.33, E 0.087 ± 0.043, G 0.013 ± 0.035, I -0.02 ± 0.073, V -0.025 ± 0.035, P -0.053 ± 0.078, M -0.007 ± 0.054, S 0.046 ± 0.039, W -0.078 ± 0.046, T -0.026 ± 0.059, A -0.04 ± 0.04, D 0.075 ± 0.039, F -0.198 ± 0.072, L -0.061 ± 0.034
D41: C -0.361 ± 0.07, F -0.689 ± 0.16, W -0.885 ± 0.11, S 0 ± 0.031, A -0.094 ± 0.038, P -1.05 ± 0.15, M -0.184 ± 0.075, T -0.159 ± 0.053, Y -0.45 ± 0.089, N -0.042 ± 0.057, Q 0.105 ± 0.057, G 0.006 ± 0.041, V -0.644 ± 0.056, R -0.052 ± 0.036, H -0.198 ± 0.068, I -0.9 ± 0.26, E 0.119 ± 0.042
T38: H -0.064 ± 0.068, P -0.201 ± 0.054, K 0.103 ± 0.071, A -0.014 ± 0.038, C -0.073 ± 0.073, N -0.11 ± 0.12, R -0.049 ± 0.028, Y -0.409 ± 0.11, V -0.106 ± 0.033, F -0.517 ± 0.13, S 0.018 ± 0.035, G -0.088 ± 0.036, Q -0.018 ± 0.027, M -0.13 ± 0.049, E -0.107 ± 0.074, L -0.158 ± 0.037, W -0.415 ± 0.064, D -0.215 ± 0.16
I39: W -0.231 ± 0.32, M -0.149 ± 0.27
L42: N -0.858 ± 0.13, D -0.618 ± 0.33, A -0.447 ± 0.048, K -0.515 ± 0.079, H -0.577 ± 0.17, G -0.654 ± 0.05, I -0.215 ± 0.13, C -0.494 ± 0.15, M -0.078 ± 0.047, F 0.012 ± 0.07
T24: E -0.108 ± 0.037, D -0.198 ± 0.062, P -0.461 ± 0.13, N -0.224 ± 0.13, S -0.007 ± 0.042, K -0.013 ± 0.056, Y -0.206 ± 0.15, M 0.018 ± 0.044, V -0.077 ± 0.038, A -0.02 ± 0.039, Q -0.086 ± 0.056, W -0.187 ± 0.037, C -0.097 ± 0.081, R -0.083 ± 0.031, F -0.212 ± 0.079, H -0.123 ± 0.12, L -0.037 ± 0.039
